The target of this assay is T1, human CD40 expressed on CHO cells (human, UniProt P25942 21-277).
T1 construct: whole, on cells; also used for the reporter cells over-expressing human CD40; also called cellular CD40; CHO-CD40 cells
Briefly: FACS, CHO cells. In general terms: Flow cytometry measures light scatter and fluorescence of single cells or particles in a stream.

T1 sequence (P25942 21-277): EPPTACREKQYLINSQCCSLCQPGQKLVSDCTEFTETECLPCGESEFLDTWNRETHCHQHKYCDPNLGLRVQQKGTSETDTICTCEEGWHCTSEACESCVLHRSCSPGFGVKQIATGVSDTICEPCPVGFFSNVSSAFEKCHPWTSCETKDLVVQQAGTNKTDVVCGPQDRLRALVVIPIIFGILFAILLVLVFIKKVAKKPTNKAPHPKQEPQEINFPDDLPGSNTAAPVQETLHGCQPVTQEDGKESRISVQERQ

B1: Ly411 (bispecific antibody, human IgG1, kappa)
heavy: EVQLVESGGGVVQPGRSLRLSCSASGFDFTTYWMSWVRQAPGKGLEWIGEIHPDSSTINYAPSLKDRFTISRDNAKNTLFLQMDSLRPEDTGVYFCASLYFGFPWFAYWGQGTPVTVSSASTKGPSVFPLAPSSKSTSGGTAALGCLVKDYFPEPVTVSWNSGALTSGVHTFPAVLQSSGLYSLSSVVTVPSSSLGTQTYICNVNHKPSNTKVDKKVEPKSCDKTHTCPPCPAPELLGPSVFLFPPKPKDTLMISRTPEVTCVVVDVSHEDPEVKFNWYVDGVEVHNAKTKPREEQYNSTYRVVSVLTVLHQDWLNGKEYKCKVSNKALPAPIEKTISKAKGQPREPQVYTLPPSREEMTKNQVSLTCLVKGFYPSDIAVEWESNGQPENNYKTTPPVLDSDGSFFLYSKLTVDKSRWQQGNVFSCSVMHEALHNHYTQKSLSLSPGK
light: DIQLTQSPSSLSASVGDRVTITCKASQDVGTSVAWYQQKPGKAPKLLIYWTSTRHTGVPSRFSGSGSGTDFTFTISSLQPEDIATYYCQQYSLYRSFGQGTKVEIKRTVAAPSVFIFPPSDEQLKSGTASVVCLLNNFYPREAKVQWKVDNALQSGNSQESVTEQDSKDSTYSLSSTLTLSKADYEKHKVYACEVTHQGLSSPVTKSFNRGECGGGGSGGGGSGGGGSGGGGSDIQMTQSPSSLSASVGDRVTITCLASEDISNDLAWYQQKPGKAPKLLIYFVDRLLDGVPSRFSGSGSGTDFTLTISSLQPEDFATYYCQQSYKYPPTFGQGTKLEIKGGGGSGGGGSGGGGSGGGGSEVQLVESGGGLVQPGGSLRLSCAASGFTFTNYGLHWVRQAPGKGLEWVSSISPSGGVTYYRDSVKGRFTISRDNSKNTLYLQMNSLRAEDTAVYYCAKPFLGWGGANWIAHWGQGTLVTVSS
notes: Ly311 HC (IgG1 mutated Fc) + Ly311 LC-TM559 scFv VL-VH
For B1, the binding result is “binds”.

B2: Ly412 (bispecific antibody, human IgG1, kappa)
heavy: B1 heavy
light: DIQLTQSPSSLSASVGDRVTITCKASQDVGTSVAWYQQKPGKAPKLLIYWTSTRHTGVPSRFSGSGSGTDFTFTISSLQPEDIATYYCQQYSLYRSFGQGTKVEIKRTVAAPSVFIFPPSDEQLKSGTASVVCLLNNFYPREAKVQWKVDNALQSGNSQESVTEQDSKDSTYSLSSTLTLSKADYEKHKVYACEVTHQGLSSPVTKSFNRGECGGGGSGGGGSGGGGSGGGGSEVQLVESGGGLVQPGGSLRLSCAASGFTFTNYGLHWVRQAPGKGLEWVSSISPSGGVTYYRDSVKGRFTISRDNSKNTLYLQMNSLRAEDTAVYYCAKPFLGWGGANWIAHWGQGTLVTVSSGGGGSGGGGSGGGGSGGGGSDIQMTQSPSSLSASVGDRVTITCLASEDISNDLAWYQQKPGKAPKLLIYFVDRLLDGVPSRFSGSGSGTDFTLTISSLQPEDFATYYCQQSYKYPPTFGQGTKLEIK
notes: Ly311 HC (IgG1 mutated Fc) + Ly311 LC-TM559 scFv VH-VL
With B2, the binding result is listed as “binds”.

B3: Ly413 (bispecific antibody, human IgG1, kappa)
heavy: EVQLVESGGGLVQPGGSLRLSCAASGFNIKDTYMHWVRQAPGKGLEWVARIDPANGNSKYADSVKGRFTISADTSKNTAYLQMNSLRAEDTAVYYCAPFGYYVSDYAMAYWGQGTLVTVSSASTKGPSVFPLAPSSKSTSGGTAALGCLVKDYFPEPVTVSWNSGALTSGVHTFPAVLQSSGLYSLSSVVTVPSSSLGTQTYICNVNHKPSNTKVDKKVEPKSCDKTHTCPPCPAPELLGPSVFLFPPKPKDTLMISRTPEVTCVVVDVSHEDPEVKFNWYVDGVEVHNAKTKPREEQYNSTYRVVSVLTVLHQDWLNGKEYKCKVSNKALPAPIEKTISKAKGQPREPQVYTLPPSREEMTKNQVSLTCLVKGFYPSDIAVEWESNGQPENNYKTTPPVLDSDGSFFLYSKLTVDKSRWQQGNVFSCSVMHEALHNHYTQKSLSLSPGGGGGSGGGGSGGGGSGGGGSDIQMTQSPSSLSASVGDRVTITCLASEDISNDLAWYQQKPGKAPKLLIYFVDRLLDGVPSRFSGSGSGTDFTLTISSLQPEDFATYYCQQSYKYPPTFGQGTKLEIKGGGGSGGGGSGGGGSGGGGSEVQLVESGGGLVQPGGSLRLSCAASGFTFTNYGLHWVRQAPGKGLEWVSSISPSGGVTYYRDSVKGRFTISRDNSKNTLYLQMNSLRAEDTAVYYCAKPFLGWGGANWIAHWGQGTLVTVSS
light: DIQLTQSPSSLSASVGDRVTITCRAGESVDIFGVGFLHWYQQKPGKAPKLLIYRASNLESGVPSRFSGSGSRTDFTLTISSLQPEDFATYYCQQTNEDPYTFGQGTKVEIKRTVAAPSVFIFPPSDEQLKSGTASVVCLLNNFYPREAKVQWKVDNALQSGNSQESVTEQDSKDSTYSLSSTLTLSKADYEKHKVYACEVTHQGLSSPVTKSFNRGEC
notes: Ly312 HC (IgG1 mutated Fc)-TM559 scFv VL-VH + Ly312 LC
Take B3: the binding result is on record as “binds”.

B4: Ly414 (bispecific antibody, human IgG1, kappa)
heavy: EVQLVESGGGLVQPGGSLRLSCAASGFNIKDTYMHWVRQAPGKGLEWVARIDPANGNSKYADSVKGRFTISADTSKNTAYLQMNSLRAEDTAVYYCAPFGYYVSDYAMAYWGQGTLVTVSSASTKGPSVFPLAPSSKSTSGGTAALGCLVKDYFPEPVTVSWNSGALTSGVHTFPAVLQSSGLYSLSSVVTVPSSSLGTQTYICNVNHKPSNTKVDKKVEPKSCDKTHTCPPCPAPELLGPSVFLFPPKPKDTLMISRTPEVTCVVVDVSHEDPEVKFNWYVDGVEVHNAKTKPREEQYNSTYRVVSVLTVLHQDWLNGKEYKCKVSNKALPAPIEKTISKAKGQPREPQVYTLPPSREEMTKNQVSLTCLVKGFYPSDIAVEWESNGQPENNYKTTPPVLDSDGSFFLYSKLTVDKSRWQQGNVFSCSVMHEALHNHYTQKSLSLSPGGGGGSGGGGSGGGGSGGGGSEVQLVESGGGLVQPGGSLRLSCAASGFTFTNYGLHWVRQAPGKGLEWVSSISPSGGVTYYRDSVKGRFTISRDNSKNTLYLQMNSLRAEDTAVYYCAKPFLGWGGANWIAHWGQGTLVTVSSGGGGSGGGGSGGGGSGGGGSDIQMTQSPSSLSASVGDRVTITCLASEDISNDLAWYQQKPGKAPKLLIYFVDRLLDGVPSRFSGSGSGTDFTLTISSLQPEDFATYYCQQSYKYPPTFGQGTKLEIK
light: B3 light
notes: Ly312 HC (IgG1 mutated Fc)-TM559 scFv VH-VL + Ly312 LC
In the case of B4, the binding result is recorded as “binds”.

B5: Ly409 (bispecific antibody, human IgG1, kappa)
heavy: EVQLVESGGGVVQPGRSLRLSCSASGFDFTTYWMSWVRQAPGKGLEWIGEIHPDSSTINYAPSLKDRFTISRDNAKNTLFLQMDSLRPEDTGVYFCASLYFGFPWFAYWGQGTPVTVSSASTKGPSVFPLAPSSKSTSGGTAALGCLVKDYFPEPVTVSWNSGALTSGVHTFPAVLQSSGLYSLSSVVTVPSSSLGTQTYICNVNHKPSNTKVDKKVEPKSCDKTHTCPPCPAPELLGPSVFLFPPKPKDTLMISRTPEVTCVVVDVSHEDPEVKFNWYVDGVEVHNAKTKPREEQYNSTYRVVSVLTVLHQDWLNGKEYKCKVSNKALPAPIEKTISKAKGQPREPQVYTLPPSREEMTKNQVSLTCLVKGFYPSDIAVEWESNGQPENNYKTTPPVLDSDGSFFLYSKLTVDKSRWQQGNVFSCSVMHEALHNHYTQKSLSLSPGGGGGSGGGGSGGGGSGGGGSDIQMTQSPSSLSASVGDRVTITCLASEDISNDLAWYQQKPGKAPKLLIYFVDRLLDGVPSRFSGSGSGTDFTLTISSLQPEDFATYYCQQSYKYPPTFGQGTKLEIKGGGGSGGGGSGGGGSGGGGSEVQLVESGGGLVQPGGSLRLSCAASGFTFTNYGLHWVRQAPGKGLEWVSSISPSGGVTYYRDSVKGRFTISRDNSKNTLYLQMNSLRAEDTAVYYCAKPFLGWGGANWIAHWGQGTLVTVSS
light: DIQLTQSPSSLSASVGDRVTITCKASQDVGTSVAWYQQKPGKAPKLLIYWTSTRHTGVPSRFSGSGSGTDFTFTISSLQPEDIATYYCQQYSLYRSFGQGTKVEIKRTVAAPSVFIFPPSDEQLKSGTASVVCLLNNFYPREAKVQWKVDNALQSGNSQESVTEQDSKDSTYSLSSTLTLSKADYEKHKVYACEVTHQGLSSPVTKSFNRGEC
notes: Ly311 HC (IgG1 mutated Fc)-TM559 scFv VL-VH + Ly311 LC
B5: the binding result was “binds”.

B6: Ly410 (bispecific antibody, human IgG1, kappa)
heavy: EVQLVESGGGVVQPGRSLRLSCSASGFDFTTYWMSWVRQAPGKGLEWIGEIHPDSSTINYAPSLKDRFTISRDNAKNTLFLQMDSLRPEDTGVYFCASLYFGFPWFAYWGQGTPVTVSSASTKGPSVFPLAPSSKSTSGGTAALGCLVKDYFPEPVTVSWNSGALTSGVHTFPAVLQSSGLYSLSSVVTVPSSSLGTQTYICNVNHKPSNTKVDKKVEPKSCDKTHTCPPCPAPELLGPSVFLFPPKPKDTLMISRTPEVTCVVVDVSHEDPEVKFNWYVDGVEVHNAKTKPREEQYNSTYRVVSVLTVLHQDWLNGKEYKCKVSNKALPAPIEKTISKAKGQPREPQVYTLPPSREEMTKNQVSLTCLVKGFYPSDIAVEWESNGQPENNYKTTPPVLDSDGSFFLYSKLTVDKSRWQQGNVFSCSVMHEALHNHYTQKSLSLSPGGGGGSGGGGSGGGGSGGGGSEVQLVESGGGLVQPGGSLRLSCAASGFTFTNYGLHWVRQAPGKGLEWVSSISPSGGVTYYRDSVKGRFTISRDNSKNTLYLQMNSLRAEDTAVYYCAKPFLGWGGANWIAHWGQGTLVTVSSGGGGSGGGGSGGGGSGGGGSDIQMTQSPSSLSASVGDRVTITCLASEDISNDLAWYQQKPGKAPKLLIYFVDRLLDGVPSRFSGSGSGTDFTLTISSLQPEDFATYYCQQSYKYPPTFGQGTKLEIK
light: B5 light
notes: Ly311 HC (IgG1 mutated Fc)-TM559 scFv VH-VL + Ly311 LC
On to B6, for which the binding result is recorded as “binds”.

B7: Ly408 (bispecific antibody, human IgG1, kappa)
heavy: EVQLVESGGGLVQPGGSLRLSCAASGFNIKDTYMHWVRQAPGKGLEWVARIDPANGNSKYADSVKGRFTISADTSKNTAYLQMNSLRAEDTAVYYCAPFGYYVSDYAMAYWGQGTLVTVSSASTKGPSVFPLAPSSKSTSGGTAALGCLVKDYFPEPVTVSWNSGALTSGVHTFPAVLQSSGLYSLSSVVTVPSSSLGTQTYICNVNHKPSNTKVDKKVEPKSCDKTHTCPPCPAPELLGPSVFLFPPKPKDTLMISRTPEVTCVVVDVSHEDPEVKFNWYVDGVEVHNAKTKPREEQYNSTYRVVSVLTVLHQDWLNGKEYKCKVSNKALPAPIEKTISKAKGQPREPQVYTLPPSREEMTKNQVSLTCLVKGFYPSDIAVEWESNGQPENNYKTTPPVLDSDGSFFLYSKLTVDKSRWQQGNVFSCSVMHEALHNHYTQKSLSLSPGK
light: DIQLTQSPSSLSASVGDRVTITCRAGESVDIFGVGFLHWYQQKPGKAPKLLIYRASNLESGVPSRFSGSGSRTDFTLTISSLQPEDFATYYCQQTNEDPYTFGQGTKVEIKRTVAAPSVFIFPPSDEQLKSGTASVVCLLNNFYPREAKVQWKVDNALQSGNSQESVTEQDSKDSTYSLSSTLTLSKADYEKHKVYACEVTHQGLSSPVTKSFNRGECGGGGSGGGGSGGGGSGGGGSQVQLVESGGGLVQPGGSLKLSCATSGFNFNDYFMNWVRQASGKGLEWVGQIRNKNYNYATYYTESLEGRVTISRDDSKNTAYLQMNSLKTEDTAVYYCTSYYYDGFADYFDYWGQGTTVTVSSGGGGSGGGGSGGGGSGGGGSDIQMTQSPSSLSASVGDRVTITCKASQNIYIYLNWYQQKPGKAPKLLIYNTNNLQTGVPSRFSGSGSGTDFTLTISSLQPEDFATYYCLQHSSRRTFGGGTKVEIK
notes: Ly312 HC (IgG1 mutated Fc) + Ly312 LC-TM740 scFv VH-VL
Turning to B7, the binding result is “binds”.

For the origin of these results see US20220372155A1 (LYVGEN BIOPHARMA, published 2022).
